In PMC10618690:

Assays:
[1] = molecular target: histone H3 amino acids 16-35, H3K27me2 peptide (UniProt P68431); assay: peptide or protein array
[2] = molecular target: histone H3 amino acids 16-35, H3K27me3 peptide (UniProt P68431); assay: peptide or protein array

fold increase in binding over the corresponding unmodified peptide [1] | fold increase in binding over the corresponding unmodified peptide [2] | fold increase in binding over the unmodified peptide [1] | fold increase in binding over the unmodified peptide [2] | Substance
5 fold | 3 fold | – | – | GST-tagged PWWP1 domain of Apis mellifera DNMT3 (domain or fragment)
– | – | 3 fold | 3 fold | GST-tagged PWWP2 domain of Apis mellifera DNMT3 (domain or fragment)
